For 19 molecules, Kd results are on record in PMC7868722.

B1: 12G (structured_DNA)
DNA: GGTTGGTGTGGTTGG
modifications: T12: N3-propargyl-dT clicked to 1-beta-D-glucopyranosyl azide (printed glycopyranosyl)
B2: 3G (structured_DNA)
DNA: GGTTGGTGTGGTTGG
modifications: T3: N3-propargyl-dT clicked to 1-beta-D-glucopyranosyl azide (printed glycopyranosyl)

For orientation: Kd means the constant that tells how readily two partners part at equilibrium. High values mean lower affinity, low ones higher affinity.

In the series the target is human alpha-thrombin (plasma) (Homo sapiens, UniProt P00734;P00734 328-363;364-622). The series can be described thus: MST.
Turning to B1, the Kd was found to be 20.7 ± 2.8 nM.
To GGTTGGTGTGGTTGG (structured_DNA, T12: N3-carboxymethyl-dT amide with L-tryptophan) [12Trp] belongs 67.3 ± 12.1 nM; to GGTTGGTGTGGTTGG (structured_DNA, T12: N3-carboxymethyl-dT amide) [12Amide], 30.6 ± 6.1 nM; to GGTTGGTGTGGTTGG (structured_DNA, T3: N3-propargyl-dT clicked to 1-beta-D-lactopyranosyl azide) [3L], 11.6 ± 0.5 nM.
The same measure for GGTTGGTGTGGTTGG (structured_DNA, T12: N3-carboxymethyl-dT amide with L-serine) [12Ser]: 86.6 ± 4.5 nM.
To GGTTGGTGTGGTTGG (structured_DNA, T12: N3-propargyl-dT clicked to 1-beta-D-lactopyranosyl azide) [12L] belongs 27.2 ± 3 nM.
The molecule GGTTGGTGTGGTTGG (structured_DNA, T3: N3-aminoalkyl-dT benzoyl amide) [3Bz] gave a Kd of 30 ± 6.6 nM.
To GGTTGGTGTGGTTGG (structured_DNA, T12: N3-carboxymethyl-dT amide with L-leucine) [12Leu] belongs 72.2 ± 0.9 nM.
The same measure for GGTTGGTGTGGTTGG (structured_DNA, T3: N3-carboxymethyl-dT amide with L-leucine) [3Leu]: 10.9 ± 0.2 nM; for GGTTGGTGTGGTTGG (structured_DNA, T3: N3-aminoalkyl-dT nicotinoyl amide) [3Nic]: 27.1 ± 4.2 nM; for GGTTGGTGTGGTTGG (structured_DNA, T3: N3-carboxymethyl-dT amide with L-phenylalanine) [3Phe]: 22.6 ± 4.8 nM.
On to GGTTGGTGTGGTTGG (structured_DNA, T3: N3-carboxymethyl-dT amide) [3Amide], for which the affinity, expressed as Kd, was 29.2 ± 0.4 nM.
To GGTTGGTGTGGTTGG (structured_DNA, T3: N3-carboxymethyl-dT amide with L-alanine) [3Ala] belongs 21.4 ± 2.8 nM; to B2, 9.8 ± 0.6 nM; to GGTTGGTGTGGTTGG (structured_DNA, T12: N3-carboxymethyl-dT amide with L-phenylalanine) [12Phe], 99.1 ± 6.3 nM.
The same measure for GGTTGGTGTGGTTGG (structured_DNA, T3: N3-carboxymethyl-dT amide with L-serine) [3Ser]: 14.6 ± 0.3 nM; for GGTTGGTGTGGTTGG (structured_DNA, T3: N3-aminoalkyl-dT p-nitrobenzoyl amide) [3NB]: 164 ± 3.5 nM.
The same measure for GGTTGGTGTGGTTGG (structured_DNA) [TBA (HD1)]: 20.2 ± 1.3 nM; for GGTTGGTGTGGTTGG (structured_DNA, T12: N3-carboxymethyl-dT amide with L-alanine) [12Ala]: 51 ± 3.8 nM.
